{
  "source": "paper PMC4026020",
  "key": {"[1]": {"biological_target": "T1, GST-AtTZF1 full-length (Arabidopsis thaliana, UniProt O82307 1-315)", "T1 sequence": "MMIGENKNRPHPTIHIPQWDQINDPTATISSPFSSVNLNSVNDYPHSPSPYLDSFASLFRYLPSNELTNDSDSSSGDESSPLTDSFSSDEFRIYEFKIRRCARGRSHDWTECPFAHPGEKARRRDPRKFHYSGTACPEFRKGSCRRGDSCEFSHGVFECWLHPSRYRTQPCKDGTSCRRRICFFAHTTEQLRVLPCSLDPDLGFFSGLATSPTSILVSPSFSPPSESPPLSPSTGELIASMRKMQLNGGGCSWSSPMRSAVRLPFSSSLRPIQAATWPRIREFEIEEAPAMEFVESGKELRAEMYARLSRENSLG", "experiment": "fluorescence anisotropy"}, "[2]": {"biological_target": "T2, MBP-AtTZF1 RR-TZF (Arabidopsis thaliana, UniProt O82307 86-195)", "T2 sequence": "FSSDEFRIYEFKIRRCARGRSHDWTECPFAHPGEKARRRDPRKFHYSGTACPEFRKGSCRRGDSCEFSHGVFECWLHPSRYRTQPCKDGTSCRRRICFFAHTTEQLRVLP", "experiment": "fluorescence anisotropy"}, "[3]": {"biological_target": "T3, MBP-AtTZF1 RR (Arabidopsis thaliana, UniProt O82307 86-128)", "T3 chain": "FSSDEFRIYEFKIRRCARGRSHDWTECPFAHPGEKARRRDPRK", "experiment": "EMSA"}, "[4]": {"biological_target": "T4, MBP-AtTZF1 TZF (Arabidopsis thaliana, UniProt O82307 129-195)", "T4 sequence": "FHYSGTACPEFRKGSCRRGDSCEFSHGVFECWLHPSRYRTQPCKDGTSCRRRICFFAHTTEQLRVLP", "experiment": "EMSA"}, "[5]": {"biological_target": "T2, MBP-AtTZF1 RR-TZF", "experiment": "EMSA"}, "[6]": {"biological_target": "T4, MBP-AtTZF1 TZF", "experiment": "fluorescence anisotropy"}},
  "data": [
    {"binder": "UAUUUAUUAUUUAUUUAUU (ssRNA)", "note": "[Fl-ARE19]", "values": [
      {"measurement": "Kd", "setting": "[1]", "value": "4550 ± 130", "unit": "nM"},
      {"measurement": "Kd", "setting": "[2]", "value": "410 ± 50", "unit": "nM"}
    ]},
    {"binder": "UAUUUAUUAUUUAUUUAUU (ssRNA)", "note": "[ARE19]", "values": [
      {"measurement": "binding result", "setting": "[3]", "value": "no binding"},
      {"measurement": "binding result", "setting": "[4]", "value": "no binding"}
    ]},
    {"binder": "UGUUUGUUGUUUGUUUGUU (ssRNA)", "note": "[MutG]", "values": [
      {"measurement": "binding result", "setting": "[5]", "value": "no binding"}
    ]},
    {"binder": "UUUUUUUUUUUUUUUUUUU (ssRNA)", "note": "[Fl-polyU]", "values": [
      {"measurement": "Kd", "setting": "[6]", "value": "7370 ± 120", "unit": "nM"},
      {"measurement": "Kd", "setting": "[1]", "value": "2270 ± 190", "unit": "nM"},
      {"measurement": "Kd", "setting": "[2]", "value": "470 ± 30", "unit": "nM"}
    ]}
  ]
}
